Sequences and labels used below:
B1: GAL4 AD alone (pACT2) (other, yeast, UniProt P04386 768-881, looked up)
chain: ANFNQSGNIADSSLSFTFTNSSNGPNLITTQTNSQALSQPIASSNVHDNFMNNEITASKIDDGNNSKPLSPGWTDQTAYNAFGITTGMFNTTTMDDVYNYLFDDEDTPPNPKKE
notes: domain: AD; Control prey
B2: GAL4 AD-ZHX1 fusion pAD-ZHX1 (345-463) (other, human, UniProt Q9UKY1 345-463, looked up, not shown: large carriers)
chain: PEEVEEARRKQFNGTVHTVPQTITVIPTHISTGSNGLPSILQTCQIVGQPGLVLTQVAGTNTLPVTAPIALTVAGVPSQNNIQKSQVPAAQPTAETKPATAAVPTSQSVKHETALVNPD
notes: range 345-463
B3: GAL4 AD-ZHX1 fusion pAD-ZHX1 (430-564) (other, human, UniProt Q9UKY1 430-564, looked up, not shown: large carriers)
chain: QVPAAQPTAETKPATAAVPTSQSVKHETALVNPDSFGIRAKKTKEQLAELKVSYLKNQFPHDSEIIRLMKITGLTKGEIKKWFSDTRYNQRNSKSNQCLHLNNDSSTTIIIDSSDETTESPTVGTAQPKQSWNPF
notes: range 430-564
B4: GAL4 AD-ZHX3 fusion pAD-ZHX3 (303-364) (other, not shown: large carriers)
chain: LSSIPTYNAAMDSNSFLKNSFHKFPYPTKAELCYLTVVTKYPEEQLKIWFTAQRLKQGISWS
notes: It is the HD1 region

In the test the target is T1, GAL4 DBD alone (pDBD) (yeast, UniProt P04386 1-147).
T1 construct: Control bait
T1 sequence (P04386 1-147 limits assumed): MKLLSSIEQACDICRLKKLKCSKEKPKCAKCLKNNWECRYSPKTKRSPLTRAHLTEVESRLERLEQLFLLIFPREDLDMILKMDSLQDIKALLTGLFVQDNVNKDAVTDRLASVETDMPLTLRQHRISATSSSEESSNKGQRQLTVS
Briefly: yeast two-hybrid, β-galactosidase activity.
Take B1: the binding result is on record as “no binding”.
Take B2: the binding result is given as “no binding”.
Turning to B3, the binding result is on record as “no binding”.
The same measure for B4: “no binding”.
